# According to the supplement of paper PMC10567573:
# B1: PDZK1 (parent)
# chain: QKEQGLSDNILSPVMNGGVQTWTQ
# B2: KRT34 (parent)
# chain: YQSYFKTIEELQQKILCAKAENAR
# Variants of: B1
# Experiment: protein stability index of a GFP-peptide fusion (GPS, HEK-293T) (PSI 1-6); higher = more stable
# Settings: c terminus: a fixed tail appended
# 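Note: lentivirally expressed fusions sorted by FACS into six bins by GFP to DsRed ratio, PSI derived from sequencing read proportions per bin multiplied by bin number.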
row,Variant,protein stability index
1,SKEQGLSDNILSPVMNGGVQTWTQ [Q1S],2.1
2,AKEQGLSDNILSPVMNGGVQTWTQ [Q1A],2.61
3,GKEQGLSDNILSPVMNGGVQTWTQ [Q1G],2.15
4,DKEQGLSDNILSPVMNGGVQTWTQ [Q1D],3.37
5,RKEQGLSDNILSPVMNGGVQTWTQ [Q1R],2.02
6,EKEQGLSDNILSPVMNGGVQTWTQ [Q1E],3.26
7,CKEQGLSDNILSPVMNGGVQTWTQ [Q1C],1.91
8,MKEQGLSDNILSPVMNGGVQTWTQ [Q1M],2.98
9,KKEQGLSDNILSPVMNGGVQTWTQ [Q1K],2.58
10,LKEQGLSDNILSPVMNGGVQTWTQ [Q1L],2.41
11,TKEQGLSDNILSPVMNGGVQTWTQ [Q1T],2.7
12,PKEQGLSDNILSPVMNGGVQTWTQ [Q1P],3.23
13,VKEQGLSDNILSPVMNGGVQTWTQ [Q1V],1.96
14,NKEQGLSDNILSPVMNGGVQTWTQ [Q1N],2.75
15,WKEQGLSDNILSPVMNGGVQTWTQ [Q1W],1.94
16,IKEQGLSDNILSPVMNGGVQTWTQ [Q1I],2.12
17,FKEQGLSDNILSPVMNGGVQTWTQ [Q1F],1.97
18,YKEQGLSDNILSPVMNGGVQTWTQ [Q1Y],2.47
19,QNEQGLSDNILSPVMNGGVQTWTQ [K2N],2.88
20,QCEQGLSDNILSPVMNGGVQTWTQ [K2C],3.57
21,QTEQGLSDNILSPVMNGGVQTWTQ [K2T],3.26

row,Variant,protein stability index
1,QYEQGLSDNILSPVMNGGVQTWTQ [K2Y],3.24
2,QEEQGLSDNILSPVMNGGVQTWTQ [K2E],3.35
3,QGEQGLSDNILSPVMNGGVQTWTQ [K2G],2.76
4,QSEQGLSDNILSPVMNGGVQTWTQ [K2S],3.13
5,QHEQGLSDNILSPVMNGGVQTWTQ [K2H],2.81
6,QDEQGLSDNILSPVMNGGVQTWTQ [K2D],3.23
7,QMEQGLSDNILSPVMNGGVQTWTQ [K2M],2.51
8,QPEQGLSDNILSPVMNGGVQTWTQ [K2P],2.67
9,QFEQGLSDNILSPVMNGGVQTWTQ [K2F],2.26
10,QREQGLSDNILSPVMNGGVQTWTQ [K2R],3.05
11,QIEQGLSDNILSPVMNGGVQTWTQ [K2I],2.42
12,QQEQGLSDNILSPVMNGGVQTWTQ [K2Q],3.15
13,QKEQILSDNILSPVMNGGVQTWTQ [G5I],2.48
14,QKEQWLSDNILSPVMNGGVQTWTQ [G5W],2.29
15,QKEQSLSDNILSPVMNGGVQTWTQ [G5S],1.87
16,QKEQYLSDNILSPVMNGGVQTWTQ [G5Y],1.66
17,QKEQHLSDNILSPVMNGGVQTWTQ [G5H],1.98
18,QKEQPLSDNILSPVMNGGVQTWTQ [G5P],3.15
19,QKEQMLSDNILSPVMNGGVQTWTQ [G5M],1.99
20,QKEQNLSDNILSPVMNGGVQTWTQ [G5N],2.7
21,QKEQQLSDNILSPVMNGGVQTWTQ [G5Q],2.7

row,Variant,protein stability index
1,QKEQCLSDNILSPVMNGGVQTWTQ [G5C],3.57
2,QKEQRLSDNILSPVMNGGVQTWTQ [G5R],2.7
3,QKEQFLSDNILSPVMNGGVQTWTQ [G5F],2.44
4,QKEQTLSDNILSPVMNGGVQTWTQ [G5T],2.92
5,QKEQALSDNILSPVMNGGVQTWTQ [G5A],2.4
6,QKEQELSDNILSPVMNGGVQTWTQ [G5E],2.82
7,QKEQDLSDNILSPVMNGGVQTWTQ [G5D],2.85
8,QKKQGLSDNILSPVMNGGVQTWTQ [E3K],4.26
9,QKTQGLSDNILSPVMNGGVQTWTQ [E3T],2.88
10,QKSQGLSDNILSPVMNGGVQTWTQ [E3S],2.02
11,QKWQGLSDNILSPVMNGGVQTWTQ [E3W],2.17
12,QKCQGLSDNILSPVMNGGVQTWTQ [E3C],2.05
13,QKHQGLSDNILSPVMNGGVQTWTQ [E3H],2.24
14,QKVQGLSDNILSPVMNGGVQTWTQ [E3V],2.05
15,QKRQGLSDNILSPVMNGGVQTWTQ [E3R],1.52
16,QKYQGLSDNILSPVMNGGVQTWTQ [E3Y],1.68
17,QKQQGLSDNILSPVMNGGVQTWTQ [E3Q],2.18
18,QKDQGLSDNILSPVMNGGVQTWTQ [E3D],3.51
19,QKGQGLSDNILSPVMNGGVQTWTQ [E3G],1.82
20,QKMQGLSDNILSPVMNGGVQTWTQ [E3M],2.61
21,QKLQGLSDNILSPVMNGGVQTWTQ [E3L],2.12

row,Variant,protein stability index
1,QKAQGLSDNILSPVMNGGVQTWTQ [E3A],3.02
2,QKFQGLSDNILSPVMNGGVQTWTQ [E3F],1.67
3,QKIQGLSDNILSPVMNGGVQTWTQ [E3I],2.67
4,QKPQGLSDNILSPVMNGGVQTWTQ [E3P],2.93
5,QKEPGLSDNILSPVMNGGVQTWTQ [Q4P],2.64
6,QKEVGLSDNILSPVMNGGVQTWTQ [Q4V],2.52
7,QKEHGLSDNILSPVMNGGVQTWTQ [Q4H],2.61
8,QKEWGLSDNILSPVMNGGVQTWTQ [Q4W],1.85
9,QKEDGLSDNILSPVMNGGVQTWTQ [Q4D],3.67
10,QKEMGLSDNILSPVMNGGVQTWTQ [Q4M],1.82
11,QKEEGLSDNILSPVMNGGVQTWTQ [Q4E],2.85
12,QKEYGLSDNILSPVMNGGVQTWTQ [Q4Y],1.98
13,QKELGLSDNILSPVMNGGVQTWTQ [Q4L],2.14
14,QKERGLSDNILSPVMNGGVQTWTQ [Q4R],3.73
15,QKETGLSDNILSPVMNGGVQTWTQ [Q4T],2.78
16,QKENGLSDNILSPVMNGGVQTWTQ [Q4N],2.29
17,QKEKGLSDNILSPVMNGGVQTWTQ [Q4K],2.08
18,QKEFGLSDNILSPVMNGGVQTWTQ [Q4F],2.21
19,QKECGLSDNILSPVMNGGVQTWTQ [Q4C],2.08

# Variants of: B2
# Experiment: as above
# Settings: c terminus: a fixed tail appended
row,Variant,protein stability index
1,YQSYFKTIEELQQKILCAKAENAL [R24L],1.77
2,YQSYFKTIEELQQKILCAKAENAD [R24D],1.16
3,YQSYFKTIEELQQKILCAKAENAT [R24T],1.64
4,YQSYFKTIEELQQKILCAKAENAA [R24A],1.52
5,YQSYFKTIEELQQKILCAKAENAW [R24W],2.32
6,YQSYFKTIEELQQKILCAKAENAQ [R24Q],3.56
7,YQSYFKTIEELQQKILCAKAENAC [R24C],1.59
8,YQSYFKTIEELQQKILCAKAENAV [R24V],2.78
9,YQSYFKTIEELQQKILCAKAENAI [R24I],2.17
10,YQSYFKTIEELQQKILCAKAENAY [R24Y],2.6
11,YQSYFKTIEELQQKILCAKAENAE [R24E],1.32
12,YQSYFKTIEELQQKILCAKAENAM [R24M],1.02
